97 variants from the supplement of paper PMC10567573 can be followed below.

B1: ZBED1 (parent)
chain: EQVFSLGDGVSGGFFGIRDSSFL
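Note: lentivirally expressed fusions sorted by FACS into six bins by GFP to DsRed ratio, PSI derived from sequencing read proportions per bin multiplied by bin number.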

Variants of B1 are the subject of this data set. The data set can be described thus: protein stability index of a GFP-peptide fusion (GPS, HEK-293T) (PSI 1-6); higher = more stable. The note with it: c terminus: native.
EQVFSLGDGVSGGFIGIRDSSFL [F15I]: the protein stability index was 3.67.
Regarding EQVFSLGDGVSGGFGGIRDSSFL [F15G], the protein stability index was 3.85.
The result for EQVFSLGDGVSGGFLGIRDSSFL [F15L] reads 3.7; that for EQVFSLGDGVSGGFWGIRDSSFL [F15W], 2.88.
With EQVFSLGDGVSGGFHGIRDSSFL [F15H] the figure was 4.11; with EQVFSLGDGVSGGFNGIRDSSFL [F15N], 4.21.
With EQVFSLGDGVSGGFKGIRDSSFL [F15K] the figure was 4.1.
With EQVFSLGDGVSGGFDGIRDSSFL [F15D], the protein stability index was determined as 4.15.
As to EQVFSLGDGVSGGFSGIRDSSFL [F15S], the protein stability index is 4.43.
For the variant EQVFSLGDGVSGGFPGIRDSSFL [F15P], the protein stability index was determined as 4.25.
The result for EQVFSLGDGVSGGFQGIRDSSFL [F15Q] reads 4.63; that for EQVFSLGDGVSGGFYGIRDSSFL [F15Y], 3.52; that for EQVFSLGDGVSGGFVGIRDSSFL [F15V], 3.65.
With EQVFSLGDGVSGGFAGIRDSSFL [F15A] the figure was 4.32; with EQVFSLGDGVSGGFEGIRDSSFL [F15E], 3.78.
The result for EQVFSLGDGVSGGFTGIRDSSFL [F15T] reads 4.08; that for EQVFSLGDGVSGGFMGIRDSSFL [F15M], 3.82.
In the case of EQVFSLGDGVSGGFCGIRDSSFL [F15C], the protein stability index was determined as 3.64.
The result for EQVFSLGDGVSGGFRGIRDSSFL [F15R] reads 4.13; that for EQVFSLGDGVSKGFFGIRDSSFL [G12K], 3.52.
With EQVFSLGDGVSFGFFGIRDSSFL [G12F] the figure was 2.01; with EQVFSLGDGVSIGFFGIRDSSFL [G12I], 1.42; with EQVFSLGDGVSAGFFGIRDSSFL [G12A], 3.41.
The result for EQVFSLGDGVSDGFFGIRDSSFL [G12D] reads 4.06; that for EQVFSLGDGVSHGFFGIRDSSFL [G12H], 3.01.
Regarding EQVFSLGDGVSVGFFGIRDSSFL [G12V], the protein stability index was 2.45.
The result for EQVFSLGDGVSCGFFGIRDSSFL [G12C] reads 2.49.
For the variant EQVFSLGDGVSSGFFGIRDSSFL [G12S], the protein stability index was determined as 3.55.
The result for EQVFSLGDGVSPGFFGIRDSSFL [G12P] reads 3.5.
The result for EQVFSLGDGVSEGFFGIRDSSFL [G12E] reads 4.06; that for EQVFSLGDGVSLGFFGIRDSSFL [G12L], 2.3; that for EQVFSLGDGVSMGFFGIRDSSFL [G12M], 2.88.
With EQVFSLGDGVSTGFFGIRDSSFL [G12T] the figure was 3.28.
Take EQVFSLGDGVSWGFFGIRDSSFL [G12W]: the protein stability index amounted to 1.72.
As for EQVFSLGDGVSYGFFGIRDSSFL [G12Y], the protein stability index worked out at 2.05.
The result for EQVFSLGDGVSRGFFGIRDSSFL [G12R] reads 2.92; that for EQVFSLGDGVSNGFFGIRDSSFL [G12N], 3.6; that for EQVFSLGDGVSQGFFGIRDSSFL [G12Q], 3.52.
With EQVFYLGDGVSGGFFGIRDSSFL [S5Y] the figure was 2.63; with EQVFTLGDGVSGGFFGIRDSSFL [S5T], 3.51.
With EQVFWLGDGVSGGFFGIRDSSFL [S5W] the figure was 1.83; with EQVFVLGDGVSGGFFGIRDSSFL [S5V], 2.44; with EQVFSLGDRVSGGFFGIRDSSFL [G9R], 2.86.
As to EQVFSLGDDVSGGFFGIRDSSFL [G9D], the protein stability index was 4.
With EQVFSLGDCVSGGFFGIRDSSFL [G9C] the figure was 2.32; with EQVFSLGDTVSGGFFGIRDSSFL [G9T], 3.1; with EQVFSLGDYVSGGFFGIRDSSFL [G9Y], 2.51.
Turning to EQVFSLGDFVSGGFFGIRDSSFL [G9F], the protein stability index worked out at 2.55.
As to EQVFSLGDWVSGGFFGIRDSSFL [G9W], the protein stability index turned out to be 1.51.
With EQVFSLGDNVSGGFFGIRDSSFL [G9N], the protein stability index was 3.46.
For the variant EQVFSLGDVVSGGFFGIRDSSFL [G9V], the protein stability index stood at 3.09.
Turning to EQVFSLGDSVSGGFFGIRDSSFL [G9S], the protein stability index amounted to 3.27.
The result for EQVFSLGDIVSGGFFGIRDSSFL [G9I] reads 2.47; that for EQVFSLGDLVSGGFFGIRDSSFL [G9L], 2.01.
With EQVFSLGDEVSGGFFGIRDSSFL [G9E] the figure was 3.25; with EQVFSLGDKVSGGFFGIRDSSFL [G9K], 2.99; with EQVFSLGDMVSGGFFGIRDSSFL [G9M], 2.9.
For the variant EQVFSLGDAVSGGFFGIRDSSFL [G9A], the protein stability index was determined as 3.15.
With EQVFSLGDPVSGGFFGIRDSSFL [G9P] the figure was 3.29; with EQVFSLGDHVSGGFFGIRDSSFL [G9H], 3.48; with EQVFSLGDQVSGGFFGIRDSSFL [G9Q], 3.16.
The result for EQVFSLCDGVSGGFFGIRDSSFL [G7C] reads 2.61; that for EQVFSLMDGVSGGFFGIRDSSFL [G7M], 2.52.
The result for EQVFSLVDGVSGGFFGIRDSSFL [G7V] reads 2.19; that for EQVFSLQDGVSGGFFGIRDSSFL [G7Q], 3.46; that for EQVFSLIDGVSGGFFGIRDSSFL [G7I], 1.9.
For EQVFSLEDGVSGGFFGIRDSSFL [G7E], the protein stability index was 3.84.
The result for EQVFSLLDGVSGGFFGIRDSSFL [G7L] reads 2.18; that for EQVFSLNDGVSGGFFGIRDSSFL [G7N], 3.28; that for EQVFSLRDGVSGGFFGIRDSSFL [G7R], 2.94.
With EQVFSLHDGVSGGFFGIRDSSFL [G7H] the figure was 3.34; with EQVFSLDDGVSGGFFGIRDSSFL [G7D], 4.29; with EQVFSLFDGVSGGFFGIRDSSFL [G7F], 1.99.
The result for EQVFSLTDGVSGGFFGIRDSSFL [G7T] reads 3.23; that for EQVFSLWDGVSGGFFGIRDSSFL [G7W], 1.7.
Turning to EQVFSLPDGVSGGFFGIRDSSFL [G7P], the protein stability index was determined as 3.51.
With EQVFSLADGVSGGFFGIRDSSFL [G7A] the figure was 2.98; with EQVFSLYDGVSGGFFGIRDSSFL [G7Y], 2.34; with EQVFSLKDGVSGGFFGIRDSSFL [G7K], 3.16.
With EQVFSLSDGVSGGFFGIRDSSFL [G7S] the figure was 2.94; with EQVFSFGDGVSGGFFGIRDSSFL [L6F], 3.22.
The result for EQVFSAGDGVSGGFFGIRDSSFL [L6A] reads 3.92; that for EQVFSCGDGVSGGFFGIRDSSFL [L6C], 3.76; that for EQVFSVGDGVSGGFFGIRDSSFL [L6V], 3.08.
Turning to EQVFSKGDGVSGGFFGIRDSSFL [L6K], the protein stability index came to 3.86.
As for EQVFSYGDGVSGGFFGIRDSSFL [L6Y], the protein stability index was 3.42.
As to EQVFSIGDGVSGGFFGIRDSSFL [L6I], the protein stability index was 3.14.
The result for EQVFSGGDGVSGGFFGIRDSSFL [L6G] reads 4.31; that for EQVFSNGDGVSGGFFGIRDSSFL [L6N], 3.4; that for EQVFSHGDGVSGGFFGIRDSSFL [L6H], 3.97.
With EQVFSMGDGVSGGFFGIRDSSFL [L6M] the figure was 3.2; with EQVFSPGDGVSGGFFGIRDSSFL [L6P], 3.96; with EQVFSEGDGVSGGFFGIRDSSFL [L6E], 4.69.
On to EQVFSSGDGVSGGFFGIRDSSFL [L6S], for which the protein stability index was 4.12.
The result for EQVFSTGDGVSGGFFGIRDSSFL [L6T] reads 3.27.
The result for EQVFSWGDGVSGGFFGIRDSSFL [L6W] reads 3.01.
The result for EQVFSDGDGVSGGFFGIRDSSFL [L6D] reads 3.73.
